Like-named read-outs stand apart in the source and are kept apart here.
Tests used:
[1] = biological target: T1, cynomolgus monkey DLL4 extracellular domain (cynomolgus monkey); experiment: binding ELISA
T1 construct: extracellular domain; also called cynoDLL4 ECD; Cyno DLL4
Protocol: (§1) Plates were then washed 3 times. 100 μl/well of recombinant rat/human chimeric or recombinant human anti-DLL4 antibodies were then added to the plate (0.00164-27 nM, 4-fold serial dilution in ELISA buffer=PBST, 10% Superblock (Pierce #37515)) for 1 hour at 25° C. with shaking and then washed again 3 times. Plates were incubated with goat anti-human HRP (Pierce #31412) (1:40,000 dilution in ELISA buffer, 100 μl/well) for 1 hour at 25° C. with shaking, then washed 3 times. After the final wash, plates were incubated with 100 μl/well ELISA substrate (Sigma #T8665). The reaction was stopped after 8 minutes at 25° C. with 100 μl/well 1N HCl and the absorbance was read at 450 nm. Data were analyzed using Graphpad Prism software, and EC50 values were reported.
(§2) Purified variants were further characterized for their affinities for human, murine and cynomolgus DLL4 by binding ELISA (Example 1.2, Method 2), by Biacore (Example 1.1), and by Flow Cytometry (FACS). […] The humanized variants were then tested for their functionality with human and murine DLL4 by competition ELISA (Example 1.3) and by Notch reporter assay (Example 1.6).

[2] = biological target: T2, human DLL4 extracellular domain (human, UniProt Q9NR61 27-529); experiment: binding ELISA
T2 construct: purified recombinant ECD; biotin-labelled or 6xHis-tagged depending on the assay; also called huDLL4 ECD; hu DLL4 ECD
T2 sequence (Q9NR61 27-529 limits assumed): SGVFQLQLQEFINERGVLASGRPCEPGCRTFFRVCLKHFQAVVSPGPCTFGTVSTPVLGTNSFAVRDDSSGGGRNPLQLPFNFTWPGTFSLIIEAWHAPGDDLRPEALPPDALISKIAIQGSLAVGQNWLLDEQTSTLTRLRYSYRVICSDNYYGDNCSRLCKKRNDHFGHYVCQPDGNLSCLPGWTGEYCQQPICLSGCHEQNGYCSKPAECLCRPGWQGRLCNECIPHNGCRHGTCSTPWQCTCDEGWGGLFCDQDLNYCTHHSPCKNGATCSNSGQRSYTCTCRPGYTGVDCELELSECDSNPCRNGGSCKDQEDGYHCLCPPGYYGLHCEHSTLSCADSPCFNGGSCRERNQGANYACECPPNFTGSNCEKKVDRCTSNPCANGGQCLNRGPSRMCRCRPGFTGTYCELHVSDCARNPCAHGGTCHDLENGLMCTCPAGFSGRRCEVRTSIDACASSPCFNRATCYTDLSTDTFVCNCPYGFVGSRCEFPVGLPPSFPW
Protocol: as §1, §2

[3] = biological target: T3, mouse DLL4 extracellular domain (mouse, UniProt Q9JI71 27-532); experiment: binding ELISA
T3 construct: extracellular domain; also called muDLL4 ECD; murine DLL4
T3 sequence (Q9JI71 27-532): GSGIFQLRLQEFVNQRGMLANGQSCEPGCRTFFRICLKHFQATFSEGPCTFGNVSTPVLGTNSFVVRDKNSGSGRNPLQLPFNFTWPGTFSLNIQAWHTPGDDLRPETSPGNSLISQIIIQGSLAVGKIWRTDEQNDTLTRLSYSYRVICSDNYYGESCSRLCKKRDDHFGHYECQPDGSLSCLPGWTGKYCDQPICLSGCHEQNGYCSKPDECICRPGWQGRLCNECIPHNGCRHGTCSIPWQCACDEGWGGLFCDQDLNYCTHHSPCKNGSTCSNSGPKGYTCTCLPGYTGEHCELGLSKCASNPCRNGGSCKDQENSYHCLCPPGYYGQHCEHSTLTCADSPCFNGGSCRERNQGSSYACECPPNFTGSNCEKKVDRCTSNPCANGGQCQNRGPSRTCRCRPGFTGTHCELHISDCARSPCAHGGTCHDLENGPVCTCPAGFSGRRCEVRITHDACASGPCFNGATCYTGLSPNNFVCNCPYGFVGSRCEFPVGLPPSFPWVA
Protocol: as §1, §2

[4] = biological target: T2, human DLL4 extracellular domain; experiment: competition ELISA vs Notch-1
Protocol: (§3) Plates were then washed 3 times with wash buffer (PBS, 0.05% Tween-20) and blocked with 200 μl/well blocking buffer (D-PBS, 1% BSA, 1 mM CaCl₂, 0.05% Tween-20) for 1 hour at 25° C. While blocking, biotin labeled DLL4 extracellular domain (14 nM) was mixed with antibody (30 pM-66 nM, 3-fold serial dilution in blocking buffer) for 1 hour at 25° C. with shaking. Assay plates were washed after blocking, and incubated with DLL4/antibody mixtures (100 μl/well, 1 hour at 25° C. with shaking). Plates were washed again and 100 μl/well streptavidin conjugated with HRP (Fitzgerald #65R-S104PHRPx, diluted 1:5,000 in blocking buffer) was added for 1 hour at 25° C. with shaking. After a final wash, plates were developed using 100 μl/well substrate (TMB Sigma #T8665), and the reaction was stopped using 100 μl/well 1N HCl, and the absorbance was read at 450 nm. Data were analyzed using Graphpad Prism software and IC₅₀ values were reported as the concentration of antibody to achieve 50% reduction of DLL4 bound to Notch1.
as §2

[5] = biological target: T3, mouse DLL4 extracellular domain; experiment: competition ELISA vs Notch-1
Protocol: as §3, §2

[6] = biological target: T2, human DLL4 extracellular domain; experiment: SPR (Biacore)
Protocol: (§4) The BIACORE® surface plasmon resonance assay (Biacore, Inc., Piscataway, N.J., US) determines the affinity of antibodies with kinetic measurements of on-rate and off-rate constants. Binding of DLL4 antibodies to a purified recombinant DLL4 extracellular domain (ECD) was determined by surface plasmon resonance-based measurements with a Biacore® instrument (either a Biacore 2000, Biacore 3000, or Biacore T100; GE Healthcare, Piscataway, N.J., US) using running buffer HBS-EPB (10 mM HEPES [pH 7.4], 150 mM NaCl, 3 mM EDTA, 0.1 mg/ml BSA and 0.005% surfactant P20) at 25° C. For example, approximately 9000 RU of goat anti-human Fc specific polyclonal antibody (Thermo Fisher Scientific Inc., Rockford, Ill., US) diluted in 10 mM sodium acetate (pH 4.5) is directly immobilized across a CMS research grade biosensor chip using a standard amine coupling kit according to manufacturer's instructions and procedures at 25 μg/ml. Unreacted moieties on the biosensor surface were blocked with ethanolamine. For kinetic analysis, rate equations derived from the 1:1 Langmuir binding model were fitted simultaneously to multiple antigen injections (using global fit analysis) with the use of Scrubber 2 (BioLogic Software), Biacore Biaevaluation 4.0.1 software or Biacore T100 Evaluation software. Purified antibodies were diluted in running buffer for capture across goat anti-human Fc reaction surfaces. Antibodies to be captured as a ligand (1 μg/ml) were injected over reaction matrices at a flow rate of 10 μl/min. During the assay, all measurements were referenced against the capture surface alone (i.e., with no captured anti-DLL4 antibody). […] The equilibrium dissociation constant KD (M) of the reaction between antibodies and the target antigen was then calculated from the kinetic rate constants by the following formula: KD=Koff/Kₒₙ. Binding was recorded as a function of time and kinetic rate constants were calculated.

[7] = biological target: T3, mouse DLL4 extracellular domain; experiment: SPR (Biacore)
Protocol: as §4

[8] = biological target: human DLL4, full length, on cells (human, UniProt Q9NR61 27-685); experiment: cell-based or functional assay
Chain of human DLL4, full length, on cells (Q9NR61 27-685 limits assumed): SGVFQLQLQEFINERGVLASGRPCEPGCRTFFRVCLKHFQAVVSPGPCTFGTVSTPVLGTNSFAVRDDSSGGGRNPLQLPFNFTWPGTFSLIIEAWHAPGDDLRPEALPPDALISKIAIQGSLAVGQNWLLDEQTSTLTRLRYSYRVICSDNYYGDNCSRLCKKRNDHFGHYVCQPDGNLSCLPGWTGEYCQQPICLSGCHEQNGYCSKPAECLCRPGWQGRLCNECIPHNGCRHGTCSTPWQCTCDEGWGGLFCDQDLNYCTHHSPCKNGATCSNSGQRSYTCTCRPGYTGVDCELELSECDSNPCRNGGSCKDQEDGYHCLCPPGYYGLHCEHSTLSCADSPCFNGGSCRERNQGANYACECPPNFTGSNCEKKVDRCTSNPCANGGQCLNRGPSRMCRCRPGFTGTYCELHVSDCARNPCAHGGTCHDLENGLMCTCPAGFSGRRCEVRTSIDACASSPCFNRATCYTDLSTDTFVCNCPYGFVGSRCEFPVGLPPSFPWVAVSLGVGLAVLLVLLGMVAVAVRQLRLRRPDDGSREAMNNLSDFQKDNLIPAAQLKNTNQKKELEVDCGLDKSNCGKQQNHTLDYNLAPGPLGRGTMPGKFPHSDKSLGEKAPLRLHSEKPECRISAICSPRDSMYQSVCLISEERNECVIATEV

[9] = biological target: T4, rat DLL4 extracellular domain (rat, UniProt D3ZHH1 28-530); experiment: SPR (Biacore)
T4 construct: extracellular domain; also called ratDLL4 ECD
T4 sequence (D3ZHH1 28-530): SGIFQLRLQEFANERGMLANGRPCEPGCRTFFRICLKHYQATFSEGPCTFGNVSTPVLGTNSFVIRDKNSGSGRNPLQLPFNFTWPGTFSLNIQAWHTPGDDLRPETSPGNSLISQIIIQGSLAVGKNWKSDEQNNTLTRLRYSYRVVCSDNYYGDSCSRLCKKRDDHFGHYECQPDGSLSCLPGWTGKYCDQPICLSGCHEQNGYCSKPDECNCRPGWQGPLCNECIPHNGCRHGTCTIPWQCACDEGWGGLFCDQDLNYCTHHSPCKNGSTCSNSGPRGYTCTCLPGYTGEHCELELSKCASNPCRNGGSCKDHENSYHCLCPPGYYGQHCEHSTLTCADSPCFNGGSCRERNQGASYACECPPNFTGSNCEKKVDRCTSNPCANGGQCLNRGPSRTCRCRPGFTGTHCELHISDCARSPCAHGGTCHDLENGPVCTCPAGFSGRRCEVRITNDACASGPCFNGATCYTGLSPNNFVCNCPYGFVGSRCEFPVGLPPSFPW
Protocol: as §4

[10] = biological target: T3, mouse DLL4 extracellular domain; experiment: SPR (Biacore); remark: listed apart in the source
Protocol: as §4

[11] = biological target: T1, cynomolgus monkey DLL4 extracellular …; experiment: SPR (Biacore)
Protocol: as §4

[12] = biological target: T2, human DLL4 extracellular domain; experiment: SPR (Biacore); remark: listed apart in the source
Protocol: as §4

Binder	EC50 [1] [nM]	EC50 [2] [nM]	EC50 [3] [nM]	IC50 [4] [nM]	IC50 [5] [nM]	Kd [6] [nM]	Kd [7] [nM]	Reporter Assay (EC50, nM) [8] [nM]	Kd [9] [nM]	koff [9] [s⁻¹]	kon [9] [M⁻¹ s⁻¹]	Kd [10] [nM]	koff [10] [s⁻¹]	kon [10] [M⁻¹ s⁻¹]	Kd [11] [nM]	koff [11] [s⁻¹]	kon [11] [M⁻¹ s⁻¹]	Kd [12] [nM]	koff [12] [s⁻¹]	kon [12] [M⁻¹ s⁻¹]
h1A11.11 (antibody, V domains shown, humanized IgG; also called VH.1b/VL.1b 1A11) VH: EVQLVESGGGLVQPGGSLRLSCAASGFTFSNFPMAWVRQAPGKGLEWVATISSSDGTTYYRDSVKGRFTISRDNAKNSLYLQMNSLRAEDTAVYYCSRGYYNSPFAYWGQGTLVTVSS VL: DIQMTQSPSSLSASVGDRVTITCRASEDIYSNLAWYQQKPGKAPKLLIFDTNNLADGVPSRFSGSGSGTDFTLTISSLQPEDFATYYCQQYNNYPPTFGQGTKLEIKR	0.15	0.07	0.09	0.4	0.8	12	27	3.73												
h1A11.B5 (antibody, V domains shown, also called h1A11.B5 VH / h1A11.B5 VL) VH: EVQLVESGGGLVQPGGSLRLSCAASGFTFRYFPMSWVRQAPGKGLEWVASISGSDGWASYRDSVKGRFTISRDNAKNSLYLQMNSLRAEDTAVYYCARGYYNSPFASWGQGTLVTVSS VL: DIQMTQSPSSLSASVGDRVTITCRASQDIWNNLAWYQQKPGKSPKLLIFDTSYLADGVPSRFSGSGSGTDFTLTISSLQPEDFATYYCQQYDWYPPTFGQGTKLEIK									410	0.0397	98200	1.2	0.000166	145000	1.5	0.000178	117000	1	0.000134	130000
h1A11.12 (antibody, V domains shown, humanized IgG; also called VH.1b/VL.2a 1A11) VH: EVQLVESGGGLVQPGGSLRLSCAASGFTFSNFPMAWVRQAPGKGLEWVATISSSDGTTYYRDSVKGRFTISRDNAKNSLYLQMNSLRAEDTAVYYCSRGYYNSPFAYWGQGTLVTVSS VL: EIVMTQSPATLSVSPGERATLSCRASEDIYSNLAWYQQKPGQSPRLLIFDTNNLADGVPARFSGSGSGTESTLTISSLQSEDFAVYFCQQYNNYPPTFGQGTKLEIKR	0.16	0.06	0.08	0.4	0.9	14	35	2.89												
h1A11.15 (antibody, V domains shown, humanized IgG; also called VH.2a/VL.1b 1A11) VH: EVQLVESGGGLVQPGGSLRLSCAASGFTFSNFPMAWVRQAPGKGLEWVATISSSDGTTYYRDSVKGRFTISRDNSKSTLYLQMNSLRAEDTAVYYCSRGYYNSPFAYWGQGTLVTVSS VL: DIQMTQSPSSLSASVGDRVTITCRASEDIYSNLAWYQQKPGKAPKLLIFDTNNLADGVPSRFSGSGSGTDFTLTISSLQPEDFATYYCQQYNNYPPTFGQGTKLEIKR	0.13	0.07	0.09	0.2	0.7	14	37	5.4												
h1A11.16 (antibody, V domains shown, humanized IgG; also called VH.2a/VL.2a 1A11) VH: EVQLVESGGGLVQPGGSLRLSCAASGFTFSNFPMAWVRQAPGKGLEWVATISSSDGTTYYRDSVKGRFTISRDNSKSTLYLQMNSLRAEDTAVYYCSRGYYNSPFAYWGQGTLVTVSS VL: EIVMTQSPATLSVSPGERATLSCRASEDIYSNLAWYQQKPGQSPRLLIFDTNNLADGVPARFSGSGSGTESTLTISSLQSEDFAVYFCQQYNNYPPTFGQGTKLEIKR	0.12	0.06	0.09	0.3	0.7	15	39	2.61												
h1A11.10 (antibody, V domains shown, humanized IgG; also called VH.1b/VL.1a 1A11) VH: EVQLVESGGGLVQPGGSLRLSCAASGFTFSNFPMAWVRQAPGKGLEWVATISSSDGTTYYRDSVKGRFTISRDNAKNSLYLQMNSLRAEDTAVYYCSRGYYNSPFAYWGQGTLVTVSS VL: DIQMTQSPSSLSASVGDRVTITCRASEDIYSNLAWYQQKPGKSPKLLIFDTNNLADGVPSRFSGSGSGTDSTLTISSLQPEDFATYFCQQYNNYPPTFGQGTKLEIKR	0.15	0.06	0.09	0.35	0.9	13	35	5.88												
h1A11.13 (antibody, V domains shown, humanized IgG; also called VH.2a/VL.1 1A11) VH: EVQLVESGGGLVQPGGSLRLSCAASGFTFSNFPMAWVRQAPGKGLEWVATISSSDGTTYYRDSVKGRFTISRDNSKSTLYLQMNSLRAEDTAVYYCSRGYYNSPFAYWGQGTLVTVSS VL: DIQMTQSPSSLSASVGDRVTITCRASEDIYSNLAWYQQKPGKAPKLLIYDTNNLADGVPSRFSGSGSGTDFTLTISSLQPEDFATYYCQQYNNYPPTFGQGTKLEIKR	0.16	0.06	0.09	0.3	1	14	37	10.4												
h1A11.14 (antibody, V domains shown, humanized IgG; also called VH.2a/VL.1a 1A11) VH: EVQLVESGGGLVQPGGSLRLSCAASGFTFSNFPMAWVRQAPGKGLEWVATISSSDGTTYYRDSVKGRFTISRDNSKSTLYLQMNSLRAEDTAVYYCSRGYYNSPFAYWGQGTLVTVSS VL: DIQMTQSPSSLSASVGDRVTITCRASEDIYSNLAWYQQKPGKSPKLLIFDTNNLADGVPSRFSGSGSGTDSTLTISSLQPEDFATYFCQQYNNYPPTFGQGTKLEIKR	0.14	0.055	0.07	0.25	0.7	13	28	4.1												

From US20110217237A1 (AbbVie / Abbott, published 2011)
